Kd, koff and kon data for two molecules are collected here from patent US20150322162A1.

Assay [1] deals with HER2-Fc (#1129-ER, R&D Systems) (UniProt P04626). The assay is described as follows: SPR, Biacore T100; antibody captured by human Fab binder on CM5 chip, HER2-Fc injected. Background: Surface plasmon resonance follows binding to a sensor surface in real time, without labels.
For assay [2], the target named is c-Met-Fc (#358-MT/CF, R&D Systems) (UniProt P08581). The experiment in a line: SPR, Biacore T100; antibody captured by human Fab binder on CM5 chip, c-Met-Fc injected.
Sequence of UniProt P08581 (P08581 25-932 limits assumed): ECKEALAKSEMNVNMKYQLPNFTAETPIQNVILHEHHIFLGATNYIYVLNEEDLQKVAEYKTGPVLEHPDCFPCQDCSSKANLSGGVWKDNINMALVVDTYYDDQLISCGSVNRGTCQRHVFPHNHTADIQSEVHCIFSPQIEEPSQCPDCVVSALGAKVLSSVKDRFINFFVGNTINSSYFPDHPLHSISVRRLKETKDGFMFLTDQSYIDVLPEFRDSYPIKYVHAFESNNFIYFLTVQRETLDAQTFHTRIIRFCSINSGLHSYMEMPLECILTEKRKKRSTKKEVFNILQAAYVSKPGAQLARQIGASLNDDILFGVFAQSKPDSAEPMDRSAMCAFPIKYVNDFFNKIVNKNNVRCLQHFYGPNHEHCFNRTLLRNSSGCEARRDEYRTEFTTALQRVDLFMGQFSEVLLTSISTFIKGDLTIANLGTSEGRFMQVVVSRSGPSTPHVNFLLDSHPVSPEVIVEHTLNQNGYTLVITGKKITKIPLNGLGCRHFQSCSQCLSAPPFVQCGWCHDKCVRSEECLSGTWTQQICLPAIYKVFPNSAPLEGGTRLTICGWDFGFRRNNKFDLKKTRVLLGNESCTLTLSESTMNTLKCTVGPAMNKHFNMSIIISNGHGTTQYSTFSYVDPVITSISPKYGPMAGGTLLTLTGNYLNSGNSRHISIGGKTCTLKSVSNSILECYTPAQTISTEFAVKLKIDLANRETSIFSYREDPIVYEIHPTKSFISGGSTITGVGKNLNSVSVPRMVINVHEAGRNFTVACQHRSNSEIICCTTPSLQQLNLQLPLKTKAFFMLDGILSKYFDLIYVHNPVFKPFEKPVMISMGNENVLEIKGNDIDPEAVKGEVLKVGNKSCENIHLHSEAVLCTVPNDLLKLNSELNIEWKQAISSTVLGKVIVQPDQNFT

B1: MH2-12 anti-c-Met/anti-HER2 bispecific antibody (bispecific antibody, part only; not given: nothing needed for binding, IgG2, not shown: another chain or arm of the molecule; small tags and cut ends)
heavy: EVQLVESGGGLVQPGGSLRLSCAASGFTFTDYYMSWVRQAPGKGLEWLGFIRNKANGYTTEYSASVKGRFTISRDNSKNTLYLQMNSLRAEDTAVYYCARDNWFAYWGQGTLVTVSSASTKGPSVFPLAPCSRSTSESTAALGCLVKDYFPEPVTVSWNSGALTSGVHTFPAVLQSSGLYSLSSVVTVPSSNFGTQTYTCNVDHKPSNTKVDKTVERKCCVECPPCPAPPVAGPSVFLFPPKPKDTLMISRTPEVTCVVVDVSHEDPEVQFNWYVDGVEVHNAKTKPREEQFNSTFRVVSVLTVVHQDWLNGKEYKCKVSNKGLPAPIEKTISKTKGQPREPQVYTLPPSREEMTKNQVSLTCLVKGFYPSDIAVEWESNGQPENNYKTTPPMLDSDGSFFLYSKLTVDKSRWQQGNVFSCSVMHEALHNHYTQKSLSLSPGKGGGGSGGGGSEVQLVQSGAEVKKPGESLKISCKGSGYSFTSYWIGWVRQMPGKGLEWMGIIYPGDSDTRYSPSFQGQVTISADKSISTAYLQWSSLKASDTAMYYCARHYYDSSGYSYFPDYWGQGTLVTVSS
VL: QTVVTQEPSFSVSPGGTVTLTCGLSSGSVSTSYYPSWYQQTPGQAPRTLIYSTNTRSSGVPDRFSGSILGNKAALTITGAQADDESDYYCVLYMGSGIWVFGGGTKLTVL
light: DIQMTQSPSSLSASVGDRVTITCKSSQSLLASGNQNNYLAWYQQKPGKAPKMLIIWASTRVSGVPSRFSGSGSGTDFTLTISSLQPEDFATYYCQQSYSRPYTFGQGTKVEIKRTVAAPSVFIFPPSDEQLKSGTASVVCLLNNFYPREAKVQWKVDNALQSGNSQESVTEQDSKDSTYSLSSTLTLSKADYEKHKVYACEVTHQGLSSPVTKSFNRGEC
The Kd is a measure of binding affinity in units of concentration. Higher therefore signals a looser complex. Usually koff stands for the first-order rate constant of dissociation. A low value points to slow dissociation. As usually defined, the kon is the second-order rate constant of association. The low end stands for slower complex formation, the high end for faster complex formation. As for B1, in assay [1], the Kd was under 0.01 nM, the koff is under 5.8e-05 s⁻¹ and the kon was found to be 200000 M⁻¹ s⁻¹. Also, in assay [2], the dissociation constant (Kd) is 0.04 nM, the koff came out at 1.9e-05 s⁻¹ and the kon worked out at 500000 M⁻¹ s⁻¹.

B2: MH2-18 anti-c-Met/anti-HER2 bispecific antibody (bispecific antibody, part only; not given: nothing needed for binding, IgG2, not shown: another chain or arm of the molecule; small tags and cut ends)
heavy: EVQLVESGGGLVQPGGSLRLSCAASGFTFTDYYMSWVRQAPGKGLEWLGFIRNKANGYTTEYSASVKGRFTISRDNSKNTLYLQMNSLRAEDTAVYYCARDNWFAYWGQGTLVTVSSASTKGPSVFPLAPCSRSTSESTAALGCLVKDYFPEPVTVSWNSGALTSGVHTFPAVLQSSGLYSLSSVVTVPSSNFGTQTYTCNVDHKPSNTKVDKTVERKCCVECPPCPAPPVAGPSVFLFPPKPKDTLMISRTPEVTCVVVDVSHEDPEVQFNWYVDGVEVHNAKTKPREEQFNSTFRVVSVLTVVHQDWLNGKEYKCKVSNKGLPAPIEKTISKTKGQPREPQVYTLPPSREEMTKNQVSLTCLVKGFYPSDIAVEWESNGQPENNYKTTPPMLDSDGSFFLYSKLTVDKSRWQQGNVFSCSVMHEALHNHYTQKSLSLSPGKGGGGSGGGGSEVQLVQSGAEVKKPGESLKISCKGSGYSFTSYWIGWVRQMPGKGLEWMGIIYPGDSDTRYSPSFQGQVTISADKSISTAYLQWSSLKASDTAMYYCARLVVGANPPTYYFDYWGQGTLVTVSS
VL: QAVVTQEPSFSVSPGGTVTLTCGLSSGSVSTSYYPSWYQQTPGQAPRTLIYSTNTRSSGVPDRFSGSILGNKAALTITGAQTDDESDYYCVLYMGSGISLFGGGTKVTVL
light: DIQMTQSPSSLSASVGDRVTITCKSSQSLLASGNQNNYLAWYQQKPGKAPKMLIIWASTRVSGVPSRFSGSGSGTDFTLTISSLQPEDFATYYCQQSYSRPYTFGQGTKVEIKRTVAAPSVFIFPPSDEQLKSGTASVVCLLNNFYPREAKVQWKVDNALQSGNSQESVTEQDSKDSTYSLSSTLTLSKADYEKHKVYACEVTHQGLSSPVTKSFNRGEC
In assay [1], B2 had a Kd of under 0.01 nM, a koff of under 1.3e-05 s⁻¹ and a kon of 820000 M⁻¹ s⁻¹. For the same molecule, in assay [2], the Kd was 0.03 nM, the koff worked out at 1.5e-05 s⁻¹ and the kon came out at 590000 M⁻¹ s⁻¹.
